{"source": "paper PMC3985918", "about": "(Biochemistry, 2014)", "molecules": {"B1": {"name": "TylM1 (Streptomyces fradiae) (protein)", "chain": "AHSSATAGPQADYSGEIAELYDLVHQGKGKDYHREAADLAALVRRHSPKAASLLDVACGTGMHLRHLADSFGTVEGLELSADMLAIARRRNPDAVLHHGDMRDFSLGRRFSAVTCMFSSIGHLAGQAELDAALERFAAHVLPDGVVVVEPWWFPENFTPGYVAAGTVEAGGTTVTRVSHSSREGEATRIEVHYLVAGPDRGITHHEESHRITLFTREQYERAFTAAGLSVEFMPGGPSGRGLFTGLPGAKGETR"}}, "key": {"[1]": {"target": "T1, TylM1 (Streptomyces fradiae, UniProt P95748)", "T1 sequence (P95748 2-255)": "B1 chain", "experiment": "X-ray crystal structure, […] Å", "type": "binding", "conditions": "complex with SAH; active site"}, "[2]": {"target": "T1, TylM1", "experiment": "X-ray crystal structure, […] Å", "type": "binding", "conditions": "complex with SAH; active site", "remark": "listed apart in the source"}, "[3]": {"substrate": "Cc1cn([C@H]2C[C@H](O)[C@@H](COP(=O)(O)OP(=O)(O)O[C@H]3O[C@H](C)[C@@H](O)[C@H](N)[C@H]3O)O2)c(=O)[nH]c1=O", "experiment": "purified protein", "conditions": "methyl donor SAM"}, "[4]": {"substrate": "Cc1cn([C@H]2C[C@H](O)[C@@H](COP(=O)(O)OP(=O)(O)O[C@H]3O[C@H](C)[C@H](O)[C@H](N)[C@H]3O)O2)c(=O)[nH]c1=O", "experiment": "purified protein", "conditions": "methyl donor SAM"}}, "data": [{"molecule": "Cc1cn([C@H]2C[C@H](O)[C@@H](COP(=O)(O)OP(=O)(O)O[C@H]3O[C@H](C)[C@@H](O)[C@H](N(C)C)[C@H]3O)O2)c(=O)[nH]c1=O", "note": "[dTDP-mycaminose]", "values": [{"measurement": "X-ray crystal structure, 1.6 Å", "setting": "[1]", "value": "The first structure determined for this investigation was that of TylM1 in complex with SAH"}]}, {"molecule": "CN[C@H]1[C@@H](O)[C@@H](C)O[C@H](OP(=O)(O)OP(=O)(O)OC[C@H]2O[C@@H](n3cc(C)c(=O)[nH]c3=O)C[C@@H]2O)[C@@H]1O", "note": "[dTDP-3-N-methylamino-3,6-dideoxygalactose]", "values": [{"measurement": "X-ray crystal structure, 2.2 Å", "setting": "[2]", "value": "enzyme in complex with SAH and dTDP-3-N-methylamino-3,6-dideoxygalactose"}]}, {"molecule": "B1", "values": [{"measurement": "Km", "setting": "[3]", "value": "79 ± 15", "unit": "µM"}, {"measurement": "kcat", "setting": "[3]", "value": "0.75 ± 0.09", "unit": "s⁻¹"}, {"measurement": "Km", "setting": "[4]", "value": "1540 ± 80", "unit": "µM"}, {"measurement": "kcat", "setting": "[4]", "value": "0.61 ± 0.07", "unit": "s⁻¹"}]}]}
